From paper PMC2799296 (Biochemistry, 2009) come the findings set out here.

This data set concerns the molecule itself. As to the kind of experiment: cryo-EM structure.

B1: bacteriophage Qβ coat protein, wild-type (133 amino acids, lacking the A1 extension) (natural protein)
chain: MAKLETVTLGNIGKDGKQTLVLNPRGVNPTNGVASLSQAGAVPALEKRVTVSVSQPSRNRKNYKVQVKIQNPTACTANGSCDPSVTRQAYADVTFSFTQYSTDEERAFVRTELAALLASPLLIDAIDQLNPAY
In the case of B1, the binding result is listed as “binds”.
